Earlier results as cited in PMC8874714.

Molecular target: CYP102A1 (Priestia megaterium) (UniProt P14779)

- Kd: 1.1 nM
Substance: CYP102A1 (from UniProt P14779)
